{"source": "patent US20070286935A1", "about": "“Bioactive Compositions, Natural Methods of Producing Them and Computational Methods for Designing Natural Production Processes” (NESTEC S.A., priority 2004, published 2007)", "key": {"Y2-GPCR": {"molecular_target": "T1, Y2-GPCR (Homo sapiens, UniProt P49146)", "T1 sequence (P49146 1-381)": "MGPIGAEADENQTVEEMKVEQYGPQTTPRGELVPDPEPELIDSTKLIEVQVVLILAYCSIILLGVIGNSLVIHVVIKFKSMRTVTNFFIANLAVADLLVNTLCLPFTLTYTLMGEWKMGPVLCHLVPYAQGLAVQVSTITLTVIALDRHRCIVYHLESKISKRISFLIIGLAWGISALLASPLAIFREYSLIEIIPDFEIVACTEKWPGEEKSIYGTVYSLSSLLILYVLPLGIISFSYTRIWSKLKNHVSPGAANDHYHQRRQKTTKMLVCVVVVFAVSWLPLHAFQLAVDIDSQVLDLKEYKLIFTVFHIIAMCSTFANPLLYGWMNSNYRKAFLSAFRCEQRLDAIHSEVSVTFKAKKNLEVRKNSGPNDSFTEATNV", "assay": "competitive binding assay against PYY22-36 on Y2-GPCR", "protocol": "The peptides derived from the proteins AtRGP2, OsRGP1 and OsBiP were synthesized in 5 mg quantities at and purified to a purity of above about 90%. The peptides were tested in a competitive binding assay against PYY^22-36 for binding to the GPCR receptor.\nIn-vitro receptor-based screening of receptor subtypes Y1, Y2, and Y3 was performed according to protocols known in the art. (Munoz et al., Mol. Cell. Endocrinol. 107, 77 (1995), Fuhlendorf et al., PNAS 87, 182 (1990)) Screening of OsBiP, ZmRGP1 and AtRGP1 was conducted on Y2-GPCR as described above using known methods and activity was measured as the percentage of inhibition of binding of the endogenous ligand PYY^22-36 sequence. The PYY^22-36 sequence was used as a positive control. Of the peptides tested, the one derived from AtRGP1 protein was able to inhibit binding of PYY^22-36 by 20-40% when 10 μM concentration of both the PYY^22-36 and OsBiP peptide were used in the binding assay. […] In vivo tissue-based screening on cultures of rat colon cells can be carried out according to known protocols, such as described in Dumont et al., Eur. J. Pharmacol. 238, 37 (1993)."}, "Y2 GPCR receptor": {"molecular_target": "T2, Y2 GPCR receptor", "T2 sequence (P49146 whole entry, species assumed, looked up)": "T1 sequence (P49146 1-381)", "assay": "competitive receptor binding assay on Y2-GPCR against PYY22-36, 10 µM of both peptides"}, "[1]": {"molecular_target": "T3, CCK-B GPCR receptor (human) (UniProt P32239)", "T3 sequence (looked up)": "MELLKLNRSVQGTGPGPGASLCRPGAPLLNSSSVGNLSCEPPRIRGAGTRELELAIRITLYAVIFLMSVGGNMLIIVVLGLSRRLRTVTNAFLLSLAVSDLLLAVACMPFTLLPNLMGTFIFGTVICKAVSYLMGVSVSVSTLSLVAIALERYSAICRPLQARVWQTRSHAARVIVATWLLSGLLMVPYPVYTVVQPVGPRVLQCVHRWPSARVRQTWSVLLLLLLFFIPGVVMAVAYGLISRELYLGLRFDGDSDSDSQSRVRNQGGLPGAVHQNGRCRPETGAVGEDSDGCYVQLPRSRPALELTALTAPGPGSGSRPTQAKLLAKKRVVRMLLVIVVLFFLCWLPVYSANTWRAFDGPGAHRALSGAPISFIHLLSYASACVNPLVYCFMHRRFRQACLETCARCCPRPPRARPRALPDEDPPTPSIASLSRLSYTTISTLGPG", "assay": "competitive receptor binding assay against CCK-8 on CCK-B receptor, synthetic peptide at 10 µM"}}, "data": [{"molecule": "YSCRYFGYLVSKKKY (listed as Arabidopsis thaliana) [AtRGP1, peptide derived from Arabidopsis thaliana amylogenin protein RGP]", "values": [{"measurement": "percentage of inhibition of binding of the endogenous ligand PYY22-36", "setting": "Y2-GPCR; 10 μM concentration of both PYY22-36 and test peptide, Y2-GPCR", "value": "20-40%"}]}, {"molecule": "FDGVDFSEPLTRARF [OsBIP]", "values": [{"measurement": "binding to the Y2 receptor", "setting": "Y2-GPCR; same technique, result in words", "value": "shown to bind the Y2 receptor"}]}, {"molecule": "YSCRYFGYLVSKKKY", "note": "[AtRGP2 peptide fragment (peptide derived from Arabidopsis thaliana amylogenin protein RGP)]", "values": [{"measurement": "percent inhibition of binding of PYY22-36", "setting": "Y2 GPCR receptor", "value": "20 to 40", "unit": "%"}]}, {"molecule": "PWMDFKELQEFK", "note": "[Oryza sativa oryzacystatin hydrolyzed with trypsin - synthetic peptide 3 (…)]", "values": [{"measurement": "percent inhibition of binding of CCK-8", "setting": "[1]", "value": 5, "unit": "%"}]}]}
